Patent publication US11325966

How the values were obtained:
Assay in all cases: cell-based or functional assay
[1] = target: HIV-1 envelope (Env) of pseudovirus Q842.d12 (HIV-1)
[2] = target: HIV-1 envelope (Env) of pseudovirus BJOX015000.11.5 (HIV-1)
[3] = target: HIV-1 envelope (Env) of pseudovirus Du172.17 (HIV-1)
[4] = target: HIV-1 envelope (Env) of pseudovirus 89-F1_2_25 (HIV-1)
[5] = target: HIV-1 envelope (Env) of pseudovirus HIV-001428-2.42 (HIV-1)
[6] = target: HIV-1 envelope (Env) of pseudovirus 191821_E6_1 (HIV-1)
[7] = target: HIV-1 envelope (Env) of pseudovirus X2131_C1_B5 (HIV-1)
[8] = target: HIV-1 envelope (Env) of pseudovirus 231965.c01 (HIV-1)
[9] = target: HIV-1 envelope (Env) of pseudovirus CNE19 (HIV-1)
[10] = target: HIV-1 envelope (Env) of pseudovirus 1056_10_TA11_1826 (HIV-1)
[11] = target: HIV-1 envelope (Env) of pseudovirus 3817.v2.c59 (HIV-1)
[12] = target: HIV-1 envelope (Env) of pseudovirus 235-47 (HIV-1)
[13] = target: HIV-1 envelope (Env) of pseudovirus CNE21 (HIV-1)
[14] = target: HIV-1 envelope (Env) of pseudovirus 6240_08_TA5_4622 (HIV-1)
[15] = target: HIV-1 envelope (Env) of pseudovirus 6535.3 (HIV-1)
[16] = target: HIV-1 envelope (Env) of pseudovirus 9004SS_A3_4 (HIV-1)
[17] = target: HIV-1 envelope (Env) of pseudovirus Ce1172_H1 (HIV-1)
[18] = target: HIV-1 envelope (Env) of pseudovirus YU2_N332K (HIV-1) (UniProt P35961)
[19] = target: HIV-1 envelope (Env) of pseudovirus TRO.11 (HIV-1)
[20] = target: HIV-1 envelope (Env) of pseudovirus Ce0393_C3 (HIV-1)
[21] = target: HIV-1 envelope (Env) of pseudovirus Du156.12 (HIV-1)
[22] = target: HIV-1 envelope (Env) of pseudovirus RHPA4259.7 (HIV-1)
[23] = target: HIV-1 envelope (Env) of pseudovirus 191084 B7-19 (HIV-1)
[24] = target: HIV-1 envelope (Env) of pseudovirus CNE17 (HIV-1)
[25] = target: HIV-1 envelope (Env) of pseudovirus CNE53 (HIV-1)
[26] = target: HIV-1 envelope (Env) of pseudovirus 231966.c02 (HIV-1)
[27] = target: HIV-1 envelope (Env) of pseudovirus P0402_c2_11 (HIV-1)
[28] = target: HIV-1 envelope (Env) of pseudovirus 263-8 (HIV-1)
[29] = target: HIV-1 envelope (Env) of pseudovirus Ce704809221_1B3 (HIV-1)
[30] = target: HIV-1 envelope (Env) of pseudovirus CNE5 (HIV-1)
[31] = target: HIV-1 envelope (Env) of pseudovirus Du422.1 (HIV-1)
[32] = target: HIV-1 envelope (Env) of pseudovirus Ce703010054_2A2 (HIV-1)
[33] = target: HIV-1 envelope (Env) of pseudovirus HIV-0013095-2.11 (HIV-1)
[34] = target: HIV-1 envelope (Env) of pseudovirus 62357_14_D3_4589 (HIV-1)
[35] = target: HIV-1 Env of pseudovirus 1394C9G1 (Rev-) (HIV-1)
[36] = target: HIV-1 Env of pseudovirus BG505/T332N (HIV-1)
[37] = target: HIV-1 YU2 Env N280Y, on pseudovirus (HIV-1) (UniProt P35961)
[38] = target: BG505 (T332N) N301A (HIV-1)

BG1 (antibody) was tested, and the IC50 in TZM-bl assay [1] was 1.4 µg/mL, the IC80 in TZM-bl assay [1] was 4.3 µg/mL and the IC50 in TZM-bl assay [2] was greater than 30 µg/mL. For the same substance, the IC80 in TZM-bl assay [2] was greater than 30 µg/mL, the IC50 in TZM-bl assay [3] was greater than 30 µg/mL and the IC80 in TZM-bl assay [3] was greater than 30 µg/mL. For the same substance, the IC50 in TZM-bl assay [4] was greater than 30 µg/mL, the IC80 in TZM-bl assay [4] was greater than 30 µg/mL and the IC50 in TZM-bl assay [5] was 1.09 µg/mL. The IC80 in TZM-bl assay [5] was 3.12 µg/mL, the IC50 in TZM-bl assay [6] was greater than 30 µg/mL and the IC80 in TZM-bl assay [6] was greater than 30 µg/mL. For the same substance, the IC50 in TZM-bl assay [7] was 0.116 µg/mL, the IC80 in TZM-bl assay [7] was 0.313 µg/mL and the IC50 in TZM-bl assay [8] was greater than 30 µg/mL. For the same substance, the IC80 in TZM-bl assay [8] was greater than 30 µg/mL, the IC50 in TZM-bl assay [9] was 1.27 µg/mL and the IC80 in TZM-bl assay [9] was 10.9 µg/mL. It also gave an IC50 in TZM-bl assay [10] of 5.43 µg/mL, an IC80 in TZM-bl assay [10] of 29.9 µg/mL and an IC50 in TZM-bl assay [11] of 11.1 µg/mL. The IC80 in TZM-bl assay [11] was greater than 30 µg/mL, the IC50 in TZM-bl assay [12] was 1.27 µg/mL and the IC80 in TZM-bl assay [12] was 4.38 µg/mL. It also gave an IC50 in TZM-bl assay [13] greater than 30 µg/mL, an IC80 in TZM-bl assay [13] greater than 30 µg/mL and an IC50 in TZM-bl assay [14] greater than 30 µg/mL. For the same substance, the IC80 in TZM-bl assay [14] was greater than 30 µg/mL, the IC50 in TZM-bl assay [15] was 0.322 µg/mL and the IC80 in TZM-bl assay [15] was 1.13 µg/mL. The IC50 in TZM-bl assay [16] was greater than 30 µg/mL, the IC80 in TZM-bl assay [16] was greater than 30 µg/mL and the IC50 in TZM-bl assay [17] was greater than 30 µg/mL. For the same substance, the IC80 in TZM-bl assay [17] was greater than 30 µg/mL, the IC50 in TZM-bl assay [18] was 19.4 µg/mL and the IC80 in TZM-bl assay [18] was greater than 30 µg/mL. The IC50 in TZM-bl assay [19] was greater than 30 µg/mL, the IC80 in TZM-bl assay [19] was greater than 30 µg/mL and the IC50 in TZM-bl assay [20] was greater than 30 µg/mL. For the same substance, the IC80 in TZM-bl assay [20] was greater than 30 µg/mL, the IC50 in TZM-bl assay [21] was 1.52 µg/mL and the IC80 in TZM-bl assay [21] was 6.03 µg/mL. For the same substance, the IC50 in TZM-bl assay [22] was greater than 30 µg/mL, the IC80 in TZM-bl assay [22] was greater than 30 µg/mL and the IC50 in TZM-bl assay [23] was greater than 30 µg/mL. It also gave an IC80 in TZM-bl assay [23] greater than 30 µg/mL, an IC50 in TZM-bl assay [24] greater than 30 µg/mL and an IC80 in TZM-bl assay [24] greater than 30 µg/mL. It also gave an IC50 in TZM-bl assay [25] of 1.32 µg/mL, an IC80 in TZM-bl assay [25] of 7.47 µg/mL and an IC50 in TZM-bl assay [26] greater than 30 µg/mL. For the same substance, the IC80 in TZM-bl assay [26] was greater than 30 µg/mL, the IC50 in TZM-bl assay [27] was greater than 30 µg/mL and the IC80 in TZM-bl assay [27] was greater than 30 µg/mL. For the same substance, the IC50 in TZM-bl assay [28] was greater than 30 µg/mL, the IC80 in TZM-bl assay [28] was greater than 30 µg/mL and the IC50 in TZM-bl assay [29] was 3.25 µg/mL. The IC80 in TZM-bl assay [29] was 18.5 µg/mL, the IC50 in TZM-bl assay [30] was 0.351 µg/mL and the IC80 in TZM-bl assay [30] was 1.28 µg/mL. For the same substance, the IC50 in TZM-bl assay [31] was 1.8 µg/mL, the IC80 in TZM-bl assay [31] was 13.7 µg/mL and the IC50 in TZM-bl assay [32] was greater than 30 µg/mL. The IC80 in TZM-bl assay [32] was greater than 30 µg/mL, the IC50 in TZM-bl assay [33] was greater than 30 µg/mL and the IC80 in TZM-bl assay [33] was greater than 30 µg/mL. For the same substance, the IC50 in TZM-bl assay [34] was 0.638 µg/mL and the IC80 in TZM-bl assay [34] was 2.89 µg/mL.
For BG18 IgG (354BG18) (antibody), the IC50 in TZM-bl assay [35] was 0.029 µg/mL, the IC80 in TZM-bl assay [35] was 0.35 µg/mL and the IC50 in TZM-bl assay [36] was less than 0.1 ng/mL. The IC80 in TZM-bl assay [36] was 2 ng/mL, the IC50 in TZM-bl assay [37] was 5 ng/mL and the IC80 in TZM-bl assay [37] was 0.016 µg/mL.
For 354BG8 (antibody), the IC50 in TZM-bl assay [38] was 4 ng/mL.
